Experimental findings from patent US20150203577A1 (Chugai, published 2015) are described below.

Test [1] addresses T1, mouse FcγRII extracellular domain with C-terminal His tag (mouse, UniProt P08101 30-210).
T1 construct: Made on the basis of NCBI NP-034317.1; also called mFcγRII; mFcgRII
T1 sequence: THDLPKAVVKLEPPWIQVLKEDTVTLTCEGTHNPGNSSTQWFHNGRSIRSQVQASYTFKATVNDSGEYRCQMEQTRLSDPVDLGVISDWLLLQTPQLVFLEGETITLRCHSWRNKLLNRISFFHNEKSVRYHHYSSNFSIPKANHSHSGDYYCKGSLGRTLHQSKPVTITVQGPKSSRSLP
Description: SPR Biacore T200. In general terms: SPR reads the build-up and loss of mass on a sensor chip optically.

The target of test [2] is T2, mouse FcγRIII extracellular domain with C-terminal His tag (mouse, UniProt P08508 31-215).
T2 construct: Made on the basis of NCBI NP-034318.2; also called mFcγRIII; mFcgRIII
T2 chain: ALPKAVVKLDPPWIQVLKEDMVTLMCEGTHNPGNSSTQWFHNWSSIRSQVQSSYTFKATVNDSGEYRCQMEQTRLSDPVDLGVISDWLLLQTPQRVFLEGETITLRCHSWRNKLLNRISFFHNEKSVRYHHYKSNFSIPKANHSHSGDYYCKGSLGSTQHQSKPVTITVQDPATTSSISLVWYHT
Nature of the test: SPR Biacore T200.

Test [3] deals with T1, mouse FcγRII extracellular domain with …. Nature of the test: SPR Biacore T200; KD mFcγRIII / KD mFcγRII.

B1: H237-MB430/MRAL-k0 (antibody, mouse IgG1, kappa)
heavy: QVQLQESGPGLVKPSETLSLTCAVSGHSISHDHAWSWVRQPPGEGLEWIGFISYSGITNYNPSLQGRVTISRDNSKNTLYLQMNSLRAEDTAVYYCARSLARTTAMDYWGEGTLVTVSSAKTTPPSVYPLAPGSAAQTNSMVTLGCLVKGYFPEPVTVTWNSGSLSSGVHTFPAVLQSDLYTLSSSVTVPSSTWPSETVTCNVAHPASSTKVDKKIVPRDCGCKPCICIPNEVEDVFIFPPKPKDVLTITLTPKVTCVVVDISKDDPEVQFSWFVDDVEVHTAQTQPREEQFNSTFRSVSELPIMHQDWLNGKEFKCRVNSAAFPAPIEKTISKTKGRPKAPQVYTIPPPKEQMAKDKVSLTCMITDFFPEDITVEWQWNGQPAENYKNTQPIMDTDGSYFVYSKLNVQKSNWEAGNTFTCSVLHEGLHNHHTEKSLSHSPGK
light: not shown
notes: copies: 2 + 2
What is called Kd is the equilibrium constant for the complex coming apart. A higher Kd goes with a looser complex. On to B1, for which, in test [1], the affinity, expressed as Kd, was 1.02 nM and the “relative mFcγRII-binding activity (mIgG1 = 1)” value was determined as 207. In addition, in test [2], the affinity, expressed as Kd, was 45 nM and the “relative mFcγRIII-binding activity (mIgG1 = 1)” value turned out to be 6.3. In test [3], the “I/A (mFcγRII selectivity)” value was found to be 44.3 and the “relative I/A (mFcγRII selectivity) (mIgG1 = 1)” value is 33.

B2: H237-MB438/MRAL-k0 (antibody, mouse IgG1, kappa)
heavy: QVQLQESGPGLVKPSETLSLTCAVSGHSISHDHAWSWVRQPPGEGLEWIGFISYSGITNYNPSLQGRVTISRDNSKNTLYLQMNSLRAEDTAVYYCARSLARTTAMDYWGEGTLVTVSSAKTTPPSVYPLAPGSAAQTNSMVTLGCLVKGYFPEPVTVTWNSGSLSSGVHTFPAVLQSDLYTLSSSVTVPSSTWPSETVTCNVAHPASSTKVDKKIVPRDCGCKPCICTTYEVEDVFIFPPKPKDVLTITLTPKVTCVVVDISKDDPEVQFSWFVDDVEVHTAQTQPREEQFNSTFRSVSELPIMHQDWLNGKEFKCRVNSAAFPAPIEKTISKTKGRPKAPQVYTIPPPKEQMAKDKVSLTCMITDFFPEDITVEWQWNGQPAENYKNTQPIMDTDGSYFVYSKLNVQKSNWEAGNTFTCSVLHEGLHNHHTEKSLSHSPGK
light: not shown
notes: copies: 2 + 2
B2: in test [1], the Kd worked out at 0.742 nM and the “relative mFcγRII-binding activity (mIgG1 = 1)” value was found to be 283. Moreover, in test [2], the Kd was 17.9 nM and the “relative mFcγRIII-binding activity (mIgG1 = 1)” value is 15.7. Also, in test [3], the “I/A (mFcγRII selectivity)” value was found to be 24.1 and the “relative I/A (mFcγRII selectivity) (mIgG1 = 1)” value was determined as 18.

B3: H237-MB436/MRAL-k0 (antibody, mouse IgG1, kappa)
heavy: QVQLQESGPGLVKPSETLSLTCAVSGHSISHDHAWSWVRQPPGEGLEWIGFISYSGITNYNPSLQGRVTISRDNSKNTLYLQMNSLRAEDTAVYYCARSLARTTAMDYWGEGTLVTVSSAKTTPPSVYPLAPGSAAQTNSMVTLGCLVKGYFPEPVTVTWNSGSLSSGVHTFPAVLQSDLYTLSSSVTVPSSTWPSETVTCNVAHPASSTKVDKKIVPRDCGCKPCICPTYEVEDVFIFPPKPKDVLTITLTPKVTCVVVDISKDDPEVQFSWFVDDVEVHTAQTQPREEQFNSTFRSVSELPIMHQDWLNGKEFKCRVNSAAFPAPIEKTISKTKGRPKAPQVYTIPPPKEQMAKDKVSLTCMITDFFPEDITVEWQWNGQPAENYKNTQPIMDTDGSYFVYSKLNVQKSNWEAGNTFTCSVLHEGLHNHHTEKSLSHSPGK
light: not shown
notes: copies: 2 + 2
Take B3: the “relative mFcγRII-binding activity (mIgG1 = 1)” value in test [1] came out at 151. Besides, in test [2], the “relative mFcγRIII-binding activity (mIgG1 = 1)” value was found to be 8.4. In addition, in test [3], the “relative I/A (mFcγRII selectivity) (mIgG1 = 1)” value amounted to 18.

B4: H237-MB437/MRAL-k0 (antibody, mouse IgG1, kappa)
heavy: QVQLQESGPGLVKPSETLSLTCAVSGHSISHDHAWSWVRQPPGEGLEWIGFISYSGITNYNPSLQGRVTISRDNSKNTLYLQMNSLRAEDTAVYYCARSLARTTAMDYWGEGTLVTVSSAKTTPPSVYPLAPGSAAQTNSMVTLGCLVKGYFPEPVTVTWNSGSLSSGVHTFPAVLQSDLYTLSSSVTVPSSTWPSETVTCNVAHPASSTKVDKKIVPRDCGCKPCICQTYEVEDVFIFPPKPKDVLTITLTPKVTCVVVDISKDDPEVQFSWFVDDVEVHTAQTQPREEQFNSTFRSVSELPIMHQDWLNGKEFKCRVNSAAFPAPIEKTISKTKGRPKAPQVYTIPPPKEQMAKDKVSLTCMITDFFPEDITVEWQWNGQPAENYKNTQPIMDTDGSYFVYSKLNVQKSNWEAGNTFTCSVLHEGLHNHHTEKSLSHSPGK
light: not shown
notes: copies: 2 + 2
Regarding B4, the “relative mFcγRII-binding activity (mIgG1 = 1)” value in test [1] stood at 198. Further, the “relative mFcγRIII-binding activity (mIgG1 = 1)” value in test [2] was determined as 11.5. In addition, the “relative I/A (mFcγRII selectivity) (mIgG1 = 1)” value in test [3] is 17.3.

B5: H237-MB433/MRAL-k0 (antibody, mouse IgG1, kappa)
heavy: QVQLQESGPGLVKPSETLSLTCAVSGHSISHDHAWSWVRQPPGEGLEWIGFISYSGITNYNPSLQGRVTISRDNSKNTLYLQMNSLRAEDTAVYYCARSLARTTAMDYWGEGTLVTVSSAKTTPPSVYPLAPGSAAQTNSMVTLGCLVKGYFPEPVTVTWNSGSLSSGVHTFPAVLQSDLYTLSSSVTVPSSTWPSETVTCNVAHPASSTKVDKKIVPRDCGCKPCICTPNEVEDVFIFPPKPKDVLTITLTPKVTCVVVDISKDDPEVQFSWFVDDVEVHTAQTQPREEQFNSTFRSVSELPIMHQDWLNGKEFKCRVNSAAFPAPIEKTISKTKGRPKAPQVYTIPPPKEQMAKDKVSLTCMITDFFPEDITVEWQWNGQPAENYKNTQPIMDTDGSYFVYSKLNVQKSNWEAGNTFTCSVLHEGLHNHHTEKSLSHSPGK
light: not shown
notes: copies: 2 + 2
As to B5, in test [1], the equilibrium dissociation constant (Kd) came out at 0.694 nM and the “relative mFcγRII-binding activity (mIgG1 = 1)” value turned out to be 303. Further, in test [2], the dissociation constant (Kd) stood at 24.4 nM and the “relative mFcγRIII-binding activity (mIgG1 = 1)” value stood at 11.6. For the same molecule, in test [3], the “I/A (mFcγRII selectivity)” value came out at 35.2 and the “relative I/A (mFcγRII selectivity) (mIgG1 = 1)” value turned out to be 26.2.

B6: H237-MB435/MRAL-k0 (antibody, mouse IgG1, kappa)
heavy: QVQLQESGPGLVKPSETLSLTCAVSGHSISHDHAWSWVRQPPGEGLEWIGFISYSGITNYNPSLQGRVTISRDNSKNTLYLQMNSLRAEDTAVYYCARSLARTTAMDYWGEGTLVTVSSAKTTPPSVYPLAPGSAAQTNSMVTLGCLVKGYFPEPVTVTWNSGSLSSGVHTFPAVLQSDLYTLSSSVTVPSSTWPSETVTCNVAHPASSTKVDKKIVPRDCGCKPCICITYEVEDVFIFPPKPKDVLTITLTPKVTCVVVDISKDDPEVQFSWFVDDVEVHTAQTQPREEQFNSTFRSVSELPIMHQDWLNGKEFKCRVNSAAFPAPIEKTISKTKGRPKAPQVYTIPPPKEQMAKDKVSLTCMITDFFPEDITVEWQWNGQPAENYKNTQPIMDTDGSYFVYSKLNVQKSNWEAGNTFTCSVLHEGLHNHHTEKSLSHSPGK
light: not shown
notes: copies: 2 + 2
Turning to B6, the “relative mFcγRII-binding activity (mIgG1 = 1)” value in test [1] amounted to 146. In test [2], the “relative mFcγRIII-binding activity (mIgG1 = 1)” value was determined as 8.7. For the same molecule, in test [3], the “relative I/A (mFcγRII selectivity) (mIgG1 = 1)” value is 16.8.

B7: H237-MB431/MRAL-k0 (antibody, mouse IgG1, kappa)
heavy: QVQLQESGPGLVKPSETLSLTCAVSGHSISHDHAWSWVRQPPGEGLEWIGFISYSGITNYNPSLQGRVTISRDNSKNTLYLQMNSLRAEDTAVYYCARSLARTTAMDYWGEGTLVTVSSAKTTPPSVYPLAPGSAAQTNSMVTLGCLVKGYFPEPVTVTWNSGSLSSGVHTFPAVLQSDLYTLSSSVTVPSSTWPSETVTCNVAHPASSTKVDKKIVPRDCGCKPCICPPNEVEDVFIFPPKPKDVLTITLTPKVTCVVVDISKDDPEVQFSWFVDDVEVHTAQTQPREEQFNSTFRSVSELPIMHQDWLNGKEFKCRVNSAAFPAPIEKTISKTKGRPKAPQVYTIPPPKEQMAKDKVSLTCMITDFFPEDITVEWQWNGQPAENYKNTQPIMDTDGSYFVYSKLNVQKSNWEAGNTFTCSVLHEGLHNHHTEKSLSHSPGK
light: not shown
notes: copies: 2 + 2
Turning to B7, in test [1], the “relative mFcγRII-binding activity (mIgG1 = 1)” value came out at 113. Moreover, the “relative mFcγRIII-binding activity (mIgG1 = 1)” value in test [2] is 4.2. The “relative I/A (mFcγRII selectivity) (mIgG1 = 1)” value in test [3] worked out at 26.8.

B8: H237-MB434/MRAL-k0 (antibody, mouse IgG1, kappa)
heavy: QVQLQESGPGLVKPSETLSLTCAVSGHSISHDHAWSWVRQPPGEGLEWIGFISYSGITNYNPSLQGRVTISRDNSKNTLYLQMNSLRAEDTAVYYCARSLARTTAMDYWGEGTLVTVSSAKTTPPSVYPLAPGSAAQTNSMVTLGCLVKGYFPEPVTVTWNSGSLSSGVHTFPAVLQSDLYTLSSSVTVPSSTWPSETVTCNVAHPASSTKVDKKIVPRDCGCKPCICDTYEVEDVFIFPPKPKDVLTITLTPKVTCVVVDISKDDPEVQFSWFVDDVEVHTAQTQPREEQFNSTFRSVSELPIMHQDWLNGKEFKCRVNSAAFPAPIEKTISKTKGRPKAPQVYTIPPPKEQMAKDKVSLTCMITDFFPEDITVEWQWNGQPAENYKNTQPIMDTDGSYFVYSKLNVQKSNWEAGNTFTCSVLHEGLHNHHTEKSLSHSPGK
light: not shown
notes: copies: 2 + 2
As to B8, in test [1], binding was put at a Kd of 0.818 nM and the “relative mFcγRII-binding activity (mIgG1 = 1)” value amounted to 257. In test [2], the Kd was 18.3 nM and the “relative mFcγRIII-binding activity (mIgG1 = 1)” value came out at 15.5. In addition, in test [3], the “I/A (mFcγRII selectivity)” value was determined as 22.3 and the “relative I/A (mFcγRII selectivity) (mIgG1 = 1)” value is 16.7.
